Test results taken from paper PMC9474600 (Immunity, 2022).

B1: 310-39G10 Fab (Fab, V domains shown)
VH: QVQLVQSGAEVKKPGSSVKVSCKASGGTFSRYTISWVRQAPGQGLEWMGRISPIAGLENYAQKFQGRVTITADISTSTAYMELSSLRSDDTAVYYCAGSSGYYQPPPYWGQGTLVTVSS
VL: EIVLTQAPFSLSLSPGERATLSCRASQSVSSSSLAWYHQKPGQAPRLLIYGASSRATGIPDRFSGSGSGTDFTLTISRLEPEDFSLYYCQQYGSSPLTFGQGTRLEIK
B2: 310-63E6 Fab (Fab, V domains shown)
VH: QVQLVQSGAEVKKPGSSVKVSCTASGGTFSTYQFSWVRQAPGQGLEWMGRIVPIQGMDYAQKFRGRVTITADKWTSTVYMEVTSLRSEDTAVYYCATSRSMYFYYQLDVWGRGTTVTVSS
VL: EIVLTQSPGTLSLSPGERATVSCRASQSVTSTFLAWYQQRPGQAPRLLIYGASSRATGIPDRFSGSGSEADFTLTINRLEPEDFAVYYCQQYATSPWTFGQGTKVEIK

Target: Recombinant soluble HA trimer of A/New Caledonia/20/1999 (H1N1 NC99) (Influenza A virus A/New …, strain)
Assay: cryo-EM structure

Binder | binding result
B1 | binds
B2 | binds
